From PMC3105425 (Nucleic Acids Research, 2011) come the findings set out here.

In the experiment the target is ribosomal protein L2 (E. coli, UniProt P60422 1-273). The experiment in a line: ELISA. For orientation: In an ELISA, binding on a coated surface is turned into a signal by an enzyme label.

B1: DnaA protein (natural protein)
chain: MSLSLWQQCLARLQDELPATEFSMWIRPLQAELSDNTLALYAPNRFVLDWVRDKYLNNINGLLTSFCGADAPQLRFEVGTKPVTQTPQAAVTSNVAAPAQVAQTQPQRAAPSTRSGWDNVPAPAEPTYRSNVNVKHTFDNFVEGKSNQLARAAARQVADNPGGAYNPLFLYGGTGLGKTHLLHAVGNGIMARKPNAKVVYMHSERFVQDMVKALQNNAIEEFKRYYRSVDALLIDDIQFFANKERSQEEFFHTFNALLEGNQQIILTSDRYPKEINGVEDRLKSRFGWGLTVAIEPPELETRVAILMKKADENDIRLPGEVAFFIAKRLRSNVRELEGALNRVIANANFTGRAITIDFVREALRDLLALQEKLVTIDNIQKTVAEYYKIKVADLLSKRRSRSVARPRQMAMALAKELTNHSLPEIGDAFGGRDHTTVLHACRKIEQLREESHDIKEDFSNLIRTLSS
As to B1, the binding result is reported as “binds”.

B2: DnaAΔ220-294 lacking residues 220–294 (natural protein)
chain: MSLSLWQQCLARLQDELPATEFSMWIRPLQAELSDNTLALYAPNRFVLDWVRDKYLNNINGLLTSFCGADAPQLRFEVGTKPVTQTPQAAVTSNVAAPAQVAQTQPQRAAPSTRSGWDNVPAPAEPTYRSNVNVKHTFDNFVEGKSNQLARAAARQVADNPGGAYNPLFLYGGTGLGKTHLLHAVGNGIMARKPNAKVVYMHSERFVQDMVKALQNNAIEPPELETRVAILMKKADENDIRLPGEVAFFIAKRLRSNVRELEGALNRVIANANFTGRAITIDFVREALRDLLALQEKLVTIDNIQKTVAEYYKIKVADLLSKRRSRSVARPRQMAMALAKELTNHSLPEIGDAFGGRDHTTVLHACRKIEQLREESHDIKEDFSNLIRTLSS
As to B2, the binding result is “binds”.

B3: DnaAΔ129 lacking the N-terminal 129 residues (domain or fragment)
chain: SNVNVKHTFDNFVEGKSNQLARAAARQVADNPGGAYNPLFLYGGTGLGKTHLLHAVGNGIMARKPNAKVVYMHSERFVQDMVKALQNNAIEEFKRYYRSVDALLIDDIQFFANKERSQEEFFHTFNALLEGNQQIILTSDRYPKEINGVEDRLKSRFGWGLTVAIEPPELETRVAILMKKADENDIRLPGEVAFFIAKRLRSNVRELEGALNRVIANANFTGRAITIDFVREALRDLLALQEKLVTIDNIQKTVAEYYKIKVADLLSKRRSRSVARPRQMAMALAKELTNHSLPEIGDAFGGRDHTTVLHACRKIEQLREESHDIKEDFSNLIRTLSS
Consider B3, for which the “fold reduction of the interaction against wild-type DnaA” value was around 4 fold.
